Test results published in US20250325556A1, “COMPOSITIONS FOR LOCAL BONE FORMATION” (OssiFi Therapeutics LLC, priority 2021, published 2025).

B1: sclerostin: ectopic sclerostin protein added to cells; inhibits mineralization in MC3T3 osteoblast cells (protein, UniProt Q9BQB4 24-213, looked up)
Sclerostin: QGWQAFKNDATEIIPELGEYPEPPPELENNKTMNRAENGGRPPHHPFETKDVSEYSCRELHFTRYVTDGPCRSAKPVTELVCSGQCGPARLLPNAIGRGKWWRPSGPDFRCIPDRYRAQRVQLLCPGGEAPRARKVRLVASCKCKRLTRFHNQSELKDFGTEAARPQKGRKPRPRARSAKANQAELENAY

Tested on: MC3T3-E1 (mouse calvarial) osteoblast cells
Assay: Mineralization assay: rescue of the inhibition of mineralization by sclerostin (ARS mineralization)
Type: cell-based
Settings: for ARS mineralization relative to wildtype mineralization: additive alone, no O20221-1, compared with cells with no additives
Source text: Mineralization (crystalline calcium phosphate formation) represents an in vitro model of bone formation. Using an assay in which the amount of mineralization is quantified by measuring total calcium after solubilization of deposited crystalline calcium phosphate, sclerostin was previously shown to inhibit mineralization in MC3T3-E1 (mouse calvarial) osteoblast cells. Li et al., J Bone Miner Res 24:578-588 (2008). Following the protocol described in Li et al., Compositions prepared in accordance with Example 1 or mixtures of the described composition components were assayed for their ability to rescue the inhibition of mineralization by sclerostin in MC3T3 osteoblast cells. This assay was used in the examples listed below.

| Molecule | ARS mineralization, restoration of normal (wildtype) mineral (in presence of sclerostin, compared with wildtype mineralization (cells with no additives)) | ARS mineralization relative to wildtype mineralization | ARS mineralization relative to wildtype mineralization (listed as Sclerostin) |
| --- | --- | --- | --- |
| COc1ccc2c3ccnc(C(F)(F)F)c3n(CCN3CCOCC3)c2n1 [O20221-1, 4-(2-(2-methoxy-8-(trifluoromethyl)-9H-pyrrolo[2,3-b:5,4-c′]dipyridin-9-yl)ethyl)morpholine] | restores normal mineral |  |  |
| B1 |  | inhibits normal mineralization | inhibits wildtype mineralization |
